This experiment addresses T1, endogenous MIF (macrophage migration inhibitory factor) in HeLa cell lysates (human, UniProt P14174 2-115).
T1 construct: Endogenous protein in lysate, detected by western blot with an anti-MIF antibody; also called MMIF; PAAN
Kind of experiment: pull-down of AIF mutants, western blot with anti-MIF antibody.

T1 sequence (P14174 2-115 limits assumed): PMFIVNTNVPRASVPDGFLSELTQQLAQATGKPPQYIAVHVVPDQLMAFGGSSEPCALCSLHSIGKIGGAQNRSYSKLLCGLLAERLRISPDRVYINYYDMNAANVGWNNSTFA

B1: AIFA567-592 (full length AIF with aa567-592 deleted) (other, mouse, UniProt Q9Z0X1 1-612, looked up)
chain: MFRCGGLAGAFKQKLVPLVRTVYVQRPKQRNRLPGNLFQQWRVPLELQMARQMASSGSSGGKMDNSVLVLIVGLSTIGAGAYAYKTIKEDQKRYNERVMGLGLSPEEKQRRAIASATEGGSVPQIRAPSHVPFLLIGGGTAAFAAARSIRARDPGARVLIVSEDPELPYMRPPLSKELWFSDDPNVTKTLQFRQWNGKERSIYFQPPSFYVSAQDLPNIENGGVAVLTGKKVVHLDVRGNMVKLNDGSQITFEKCLIATGGTPRSLSAIDRAGAEVKSRTTLFRKIGDFRALEKISREVKSITVIGGGFLGSELACALGRKSQASGIEVIQLFPEKGNMGKILPQYLSNWTMEKVKREGVKVMPNAIVQSVGVSGGRLLIKLKDGRKVETDHIVTAVGLEPNVELAKTGGLEIDSDFGGFRVNAELQARSNIWVAGDAACFYDIKLGRRRVEHHDHAVVSGRLAGENMTGAAKPYWHQSMFWSDLGPDVGYEAIGLVDSSLPTVGVFAKATAQDNPKSATEQSGTGIRSESETESEASEITIPPSAPAVPQVPVEGEDYGKGVIFYDGEQHEDLNEVAKLFNIHED
In the case of B1, the binding result is “no binding”.

B2: AIFm567-592 (full length AIF with aa567-592 mutated into polyalanines) (other, mouse, UniProt Q9Z0X1 1-612, looked up)
chain: MFRCGGLAGAFKQKLVPLVRTVYVQRPKQRNRLPGNLFQQWRVPLELQMARQMASSGSSGGKMDNSVLVLIVGLSTIGAGAYAYKTIKEDQKRYNERVMGLGLSPEEKQRRAIASATEGGSVPQIRAPSHVPFLLIGGGTAAFAAARSIRARDPGARVLIVSEDPELPYMRPPLSKELWFSDDPNVTKTLQFRQWNGKERSIYFQPPSFYVSAQDLPNIENGGVAVLTGKKVVHLDVRGNMVKLNDGSQITFEKCLIATGGTPRSLSAIDRAGAEVKSRTTLFRKIGDFRALEKISREVKSITVIGGGFLGSELACALGRKSQASGIEVIQLFPEKGNMGKILPQYLSNWTMEKVKREGVKVMPNAIVQSVGVSGGRLLIKLKDGRKVETDHIVTAVGLEPNVELAKTGGLEIDSDFGGFRVNAELQARSNIWVAGDAACFYDIKLGRRRVEHHDHAVVSGRLAGENMTGAAKPYWHQSMFWSDLGPDVGYEAIGLVDSSLPTVGVFAKATAQDNPKSATEQSGTGIRSESETESEASEITIPPSAPAVPQVPVEGEDYGKGVIFYAAAAAAAAAAAAAAAAAAAAAAAAAADGEQHEDLNEVAKLFNIHED
Regarding B2, the binding result is recorded as “no binding”.

Values taken from patent publication US20220249597A1 (Johns Hopkins, published 2022).
